Legend:
[1] = target: spike of variant P.1 v1 on pseudovirus; assay: cell-based or functional assay
[2] = target: full-length spike B.1.617.2 (SARS-CoV-2) (UniProt P0DTC2); assay: cell-based or functional assay

| Substance | neutralization IC50 [1] | pseudotyped virus neutralization [2] | neutralization, fold reduction in activity [2] |
| --- | --- | --- | --- |
| CB6 (antibody) | > 10 µg/mL |  |  |
| LY-CoV555 (antibody) | > 10 µg/mL | > 10000 ng/mL |  |
| REGN10987 (antibody) |  |  | 4 fold |
